Measured values: article PMC7801609, “Isolation of MERS-related coronavirus from lesser bamboo bats that uses DPP4 and infects human-DPP4-transgenic mice” (Nature Communications, 2021)

Tests used:
Test in all cases: SPR; BIAcore X100, CM5 chip, 25 °C; […]; HBS-P+ buffer ([…]
[1] = molecular target: HKU4-RBD fused to a C-terminal His-tag (Tylonycteris-bat-CoV-HKU4) (UniProt A3EX94)
[2] = molecular target: MERS-RBD fused to a C-terminal His-tag (MERS-CoV) (UniProt K9N5Q8)
[3] = molecular target: peptidase domain of hDPP4 (residues 39-766) fused to a C-terminal His-tag (human, UniProt P27487 39-766); conditions: both partners purified
Chain of peptidase domain of hDPP4 (residues 39-766) fused to a C-terminal His-tag (human, UniProt P27487 39-766) (P27487 39-766): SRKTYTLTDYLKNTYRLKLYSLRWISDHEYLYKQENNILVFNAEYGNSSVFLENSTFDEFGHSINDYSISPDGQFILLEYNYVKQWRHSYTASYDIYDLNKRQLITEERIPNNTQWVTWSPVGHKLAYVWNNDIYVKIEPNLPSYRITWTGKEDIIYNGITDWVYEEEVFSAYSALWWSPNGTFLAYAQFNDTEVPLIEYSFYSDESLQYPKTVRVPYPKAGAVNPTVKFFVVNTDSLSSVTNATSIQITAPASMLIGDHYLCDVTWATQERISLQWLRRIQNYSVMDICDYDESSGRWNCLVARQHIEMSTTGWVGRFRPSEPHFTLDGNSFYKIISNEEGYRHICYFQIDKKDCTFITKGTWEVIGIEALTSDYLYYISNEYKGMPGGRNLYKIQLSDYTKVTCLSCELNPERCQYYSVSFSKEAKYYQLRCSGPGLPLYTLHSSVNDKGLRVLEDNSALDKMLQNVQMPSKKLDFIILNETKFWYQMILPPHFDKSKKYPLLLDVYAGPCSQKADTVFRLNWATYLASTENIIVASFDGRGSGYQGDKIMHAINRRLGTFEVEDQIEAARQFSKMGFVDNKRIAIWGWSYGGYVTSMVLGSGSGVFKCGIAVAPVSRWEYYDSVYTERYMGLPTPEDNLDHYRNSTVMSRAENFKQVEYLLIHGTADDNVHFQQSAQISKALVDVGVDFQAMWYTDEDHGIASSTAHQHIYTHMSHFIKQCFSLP

Chain of peptidase domain of hDPP4 (residues 39-766) fused to a C-terminal His-tag (from UniProt P27487 39-766) (domain or fragment) (P27487 39-766): as above

| Molecule | Kd [1] [µM] | Kd [2] [µM] | Kd [3] [µM] |
| --- | --- | --- | --- |
| peptidase domain of dcDPP4 (residues 39-765) fused to a C-terminal His-tag (domain or fragment) | > 47.7 | > 18.7 |  |
| peptidase domain of TpDPP4 (residues 37-764) fused to a C-terminal His-tag (domain or fragment) | 2.58 |  |  |
| peptidase domain of hDPP4 (residues 39-766) fused to a C-terminal His-tag (from UniProt P27487 39-766) (domain or fragment) | 1.1 |  |  |
| MERS-RBD fused to a C-terminal His-tag (domain or fragment) EAKPSGSVVEQAEGVECDFSPLLSGTPPQVYNFKRLVFTNCNYNLTKLLSLFSVNDFTCSQISPAAIASNCYSSLILDYFSYPLSMKSDLSVSSAGPISQFNYKQSFSNPTCLILATVPHNLTTITKPLKYSYINKCSRFLSDDRTEVPQLVNANQYSPCVSIVPSTVWEDGDYYRKQLSPLEGGGWLVASGSTVAMTEQLQMGFGITVQYGTDTNSVCPKLEFANDTKIASQLGNCVEY |  |  | 0.632 |
